{"source": "the DeepSol protein solubility set"}
{"test": "soluble on expression in E. coli; label from the status in PepcDB or PDB records"}
{"sequence": "MSLKIVRILEKDLPITSPGANAVVDFAGLTTSAVAIVTDAFRDGKPLVGYGFGSIGRWSVGGMLRERFIPRILAVEPASLQDETGNIDPFACWNAAMRNEKPGGHGDRATALGALDMALWDLRAKADGVPLYRLLADRYRDGQADEDVAVYAAGGYYQPGSNYRSLQDELKGYIDRGYNEVKIKIGGAPLAEDMRRIEAAIAVLGDGARLAVDANGRFDLETALAYGRAMSDYGLRWYEEPGDPLDFRLMAVLAEHYDGPLATGENLFSSQDARNLLRYGGMRAERDFVQFDCGLAYGLPDYLKVLDIMRRHGWSPRRLHPHGGHQMSLHLAAGLGLGGNESYPGVFQPLGGFADCSKVENGRVRLPDAPGVGLELKSELKTWLDEAFEEGHHHHHH", "soluble on expression in E. coli": "not soluble"}
{"sequence": "GLGKFIETCRNTQLAGSSELAAECKTRAQQFVSTKINLDDHIANIDGTLKWQPSNFSQTCYNSAIQGSVLTSTCERTNGGYNTSSIDLNSVIENVDGSLKYE", "soluble on expression in E. coli": "soluble"}
{"sequence": "MVHSNGAITSTILKARHADVVRKTSLHHANDLTLIDLVLNVQRLLALPSDANFVLKYKDEEGDLVTLAEDSDLLLALHTSGATLDVTVVVDSRAREAVHDVQKQVEQIKLDVGKLLGALSALDVAQIAEQSNTSVANLSAPKQSHHDNIVFQKSFEAAPPSPVPSEKAELPATIQPSVHEQFNHRPAHVEEEIPLENHYAPPPHQQIPDDLNTSFSSQPPPPIEQFGAIPPPNATIPSFPTSNAASPPVQEFAPPPPQQQQQQFQAPPPPMASHSSISSTPVQQQGFAPPQQFGGPPPSGPPSEYGGYAPPQQQQQQFGAPPPQGAPQQGFGAPPQGPPQGGPPQGSFGAPPPQQFHAPSPQSFGGPPPPVSSAPGNFAPPPQSGPPGAFAPPPSAFGAPQGPGGPGGYGPPPPGGPGAPGSYGPPQGGPGGFGPPPPGGPGAYGPPPTGFPPVGAPPPGAAGAPGGNPFARGPSATGYRQSPYQQ", "soluble on expression in E. coli": "not soluble"}
{"sequence": "MSLADAPDNLLGAYLRDRREKLDPAALGLPSTRRRTPGLRREEVAQRAHVSTAWYTWMEQGRGGAPSADVLDRLARALLLDDAEREHLFLLGVGHPPEVRYHASGGVTPRLQHVLDAMDASPAIVRTATWDVVAWNAAAAATLTDYATLPPAARNILRLIFVDPRVRDAQPNWDRVARFAVGAFRADIARGGATQAVQAFIDEMRATSAEFDALWRDHDIRSHDEGTKEIRHPHAGRITLEYSAFAVIGRADLSLVIFTPTTAADRASIRSLVAAREQARAAQAPAMEGHHHHHH", "soluble on expression in E. coli": "soluble"}
{"sequence": "MQFQIGAQGDIADMLTMCNNFPGFEAPMRYMIENSHDVVTVFDGSPAVIVLDELVKADESSYLPFKMKKSYKKVDEIAAKMASEEIHFTIHLSSHSQKNVIQIFQSAYSDGYTEEDKKGKIPEGGRVKCAGTETGARSNVKCEEVAKEVNEYIDSNKDKFGDLKVESLGKADSFMKQKPRRNLFIRVPPLE", "soluble on expression in E. coli": "not soluble"}
{"sequence": "DLILPFYKAGKVSFYQGDLDVLINFLEPDVLVNAANGDLRHVGGVARAIDVFTGGKLTKRSKEYLKSSKAIAPGNAVLFENVLEHLSVLNAVGPRNGDSRVEGKLCNVYKAIAKCDGKILTPLISVGIFKVKLEVSLQCLLKTVTDRDLNVFVYTDQERVTIENFFNG", "soluble on expression in E. coli": "soluble"}
{"sequence": "MGSDKIHHHHHHMEHISQLTAEIRDKAAYPDILVISRIFLPKEAVIGEYMYNRCLQDPERVIVLAASCSGDKVFDEGQQFPVYRWFYPRYWRSGFVGNILKPFVNIVCSFVLAIKLYFRYHYRYIEWGHGYDFPSLLLLSYLLPIRFFIYLHGNDFLCTLHNPVLRSLFKLTLKRAEGIVCNSSYTQDYLRTALRLDTPTYVINPVIRPEKFGNNVGSPSSLDDLRVRVRQAYNIPDSAIVILSIGRLVKHKAFDQVIDNIPLLLTFGVDVHYIICGEGPSESELKSLVHRLRVDKCVHFAGYVAERELAGYYAACDIFAMLTLLDSKPNNMEGFGMVYLEASYFGKPIIAPRLGGVLDTVQHEENGILVNPNSGYEVFQAFNRLCKDQQLREQLGRKGKELAKRRTLHRSLYKSEGKNPIL", "soluble on expression in E. coli": "not soluble"}
{"sequence": "GMEQLQKRKIYDTTASNASTGILNGKSSNVLNWDDVRFSWAYPLYKNMLANFWTPFEINMSHDAKQFPTLTETEQEAFKKIIGLLAFLDSVQTDYSMRAAEYLTDSSLAALMSVLSFQEVVHNQSYSYVLSSLVPKATQDEIFEYWKHDDVLKERNEFIIDGYEKFVDNPTPKTFLESIVYDVILEGLNFYSGFAFFYNLARNQKMVSTSTMINYINRDEQLHVYLFTNIFKELLVEFPELNTEETKTFVKTTLMKAADLEKDWFRYIIGDKIPGINPEDMETYISFIANKRAVQLGMEKPYPEIKHNPMKWIRAYEDVNSGKSDFFEQKSRQYAKVSADNGFDEL", "soluble on expression in E. coli": "soluble"}
{"sequence": "MKIIKRSGSEVTFDISKIMAAVSKANMEVVHSERLSEEQIETISNNVESICKEMNRSLSVEEIQDLVENQIMNLRAFAVARKYITYRYKRALVRKSNST", "soluble on expression in E. coli": "not soluble"}
{"sequence": "MKFKLFLGSSFFGVATLLIACGTGRFDQIDDGKIKLAVVTSPSAASSLQTLLDQYNNTKAPADYPVEVVSLDSTGSYTKGKFDTQKRLAAKDKNNFYN", "soluble on expression in E. coli": "not soluble"}
{"sequence": "MGSDKIHHHHHHMPNTFEHLQAAHCENGVTTNLLRNVGVSKMTEPLAFGIGSGLFFIYIPLMKINGGPAIAYRTMPGLIFKRTAQSLGIDVVRKTFRSTIKAQEFLDACIKAGQPVGCQVGVYFLSYFPKEYRFHFNAHNLIVYGKEGDNYLVSDPVMETTNILSTYELERVRFAKGALAPKGQIYFPKPNHEPVSDDKIRKAIVTGVKRNIRDMLHIPGPIAGVSGIKYTGNKIKNWRDKLGIEKAGLYLAQLVRMQEEIGTGGGGFRFIYGAFLQQAHAFHNDDQLLEISKSFTQSGDLWRSAAIQAAGIYKGRITSQADFNVMGDYLLEISELEKKAFKELTKIKWQK", "soluble on expression in E. coli": "not soluble"}
{"sequence": "EKAEDCWELQISPELLAHGRQKILDLLNEGSARDLRSLQRIGPKKAQLIVGWRELHGPFSQVEDLERVEGITGKQMESFLKANILGLAAGQ", "soluble on expression in E. coli": "soluble"}
{"sequence": "MSEAQGQGKQSLVEMLKAMVQARASDIHLQAGAPPTVRIDGKLRPFGNRPLTPKEVEAIARALLTPEQLEELEYRKEMDFAYTIPGVARFRCNLLRQRGSFGLVMRVVSEVIPSFEALGLPREVMESLAAKERGLILVTGPTGSGKSTTLAALIDHINLHYAKNIITIEDPIEFLHKHKKSLVVQREVGLDTDSFYTGLKYALRQDPDVIMVGEMRDRETVEAALMAAQTGHLVLSTLHTLDAWRTINRIIDFFPLHEHRQVRVLLAESLLGILSQRLLPKADGQGRVLALEILIATPYVRELLKDEEKMPQIKEAMMEGSLYGMRTFDQHLVELYTEGLISLEDALSAATSPHEFRLLLTKATGQTY", "soluble on expression in E. coli": "soluble"}
{"sequence": "MALLERILARDNLITALKRVEANQGAPGIDGVSTDQLRDDVRAHWSTIRAQLLAGTYRPAPVRRVEIPKPGGGTRQLGIPTVVDRLIQQAILQELTPIFDPDFSPSSFGFRPGRNAHDAVRQAQGYIQEGYRYVVDMDLEKFFDRVNHDILMSRVARKVKDKRVLKLIRAYLQAGVMIEGVKVQTEEGTPQGGPLSPLLANILLDDLDKELEKRGLKFCRYADDCNIYVKSLRAGQRVKQSIQRFLEKTLKLKVNEEKSAVDRPWKRAFLGFSFTPERKARIRLAPRSIQRLKQRIRQLTNPNWSISMPERIHRVNQYVMGWIGYFRLVETPSVLQTIEGWIRRRLRLCQWLQWKRVRTRIRELRALGLKETAVMEIANTRKGAWRTTKTPQLHQALGKTYWTAQGLKSLTQRYFELRQG", "soluble on expression in E. coli": "not soluble"}
{"sequence": "DNMFCNKEYCNRLKDENNCISNLQVEDQGNCDTSWIFASKYHLETIRCMKGYEPTKISALYVANCYKGEHKDRCDEGSSPMEFLQIIEDYGFLPAESNYPYNYVKVGEQCPKVEDHWMNLWDNGKILHNKNEPNSLDGKGYTAYESERFHDNMDAFVKIIKTEVMNKGSVIAYIKAENVMGYEFSGKKVKNLCGDDTADHAVNIVGYGNYVNSEGEKKSYWIVRNSWGPYWGDEGYFKVDMYGPTHCHFNFIHSVVIFNVDLPMN", "soluble on expression in E. coli": "soluble"}
{"sequence": "MSFALGQRWISDTESDLGLGTVVALDARTVTLMFAASEENRVYARSDAPVTRVIFNVGDVVDSQQGWSLQVEQVVEDQGVYTYLGTRVDTEESGVALREIFLSNQIRFNKPQDKLFAGQIDRMDNFVLRY", "soluble on expression in E. coli": "not soluble"}
{"sequence": "MEGLARVFLIGGASKAVRYDEQTTIERVIHVVARGIGISQVAVAHFALRLVTGPSPQTAGSGDSLWLHPMLRITQLPHIYARHLPIGVCDEIKLEMRMRFMPQSVYELQATDSSAFVYLHEQVVDEFFSHVAWRSSVEVALEVAALKVCRDFAEHQHNKGADHHLEDLDIEACIQSLIPNVLHNPGFKHSHLKKTFTAYIKKFSATSPNESIIRSLALLLEVVKFDVELFKASLGAGWTKPVELVVGPHTGLSYRLNERCDSSRLLELRTIAEITIRKMENGSEKTLMQLNLSGAAKPVLITLSTEELSQSLAHLLDGYQMLYNQRDSVFKLKGIERCETLTMHEATIRPKTPNNIDSNIRLRRELITLKELIGGGQFGNVYKAVYHDLEKDERIAVAVKVCKTDAEPADTQLILQESSLMRNFRHSNIIQLIGVCVDQPMWLVLELAPKGELREYLQQEKDWLPLRILTLFCSQICDSLVYLHSTRFVHRDIAARNILVCSPQCVKLADFGLSRALDYDAVYTASRGKLPIKWLAPESVNYRQFSMASDVWMFGVCMWEIFSLGVKPWAGVTNSDVIMHIEQGSRPPCPEKCPTALYNFIRSKMWAIEPHKRPTVDQIYAIIEDVRQQIIQNIPPEQIIVGKPMTAAGVIVAEMSSLPGLTLYRTMEDQKRQAEEDAKWLEQEDDEDEDDQDIDQIPSTSHSSVENIRTSNGYLHHTPTSTRSLRFEDKTSRGLRRSVDGVCDAVTKLQNSFNNLTHNDDFLHSVKEVTSQLREMLIVASGMRDRVTTTTQRTDVDMTKTLIANDMKQMSRVMGKLQVNGHQATYNTLRRDVVRICGELAVNCTTLQLQLTQPPLENEFSSLLSNC", "soluble on expression in E. coli": "not soluble"}
{"sequence": "MSLKWSAIPFQTLYRSIESGEFDFDLFKEVLPDLQNLNLNTDKLKNNASRSQLEKGEIELSDGSTFKVNQEFIFEAISLSDELNLDEIVACELILSGDTTANNGKVQYFLRRQYILQIVSFIVNCFHEDTELYQELIKNGALVSNILSAFKFIHTQLSEIKQQINKAQILENYNALFQQNIKFRRDFLLREYDILSQILYGLVDKGAIMKNKDFILSLLHHVSELDSNDFFIIYYTPAFFHLFASLRVLPDADVKLLHSQFMKDLKDDSIYTKPVKVALIFIFFAYFIGWCKEDPKRRADTMDFKTDVDEPMTSAVELGAIEQILIFAADTSIVEQDKSMELFYDIRSLLERHIPRLIPKQLLDDEKIFSQTTNSTYNPASATDNMSGRGLWNPSYPGMMSTTGTARLNSMPNNVNEYSYTTIVLSDQTQEFFLSSFDDVLQTIITDCAFLLTKIKDAEEDSLLSGEDLTLDDISLKADLERFFLSIYFFYASRPEYSCTFWSDKESNAYGFIEWCSRCNDNLMRSCFYLMVSSLSFGPENALNVYHYFGENSSISWKNIAQCLSDYTKKISNFNSSLHKRQQFSESTHNDIDSTAVALEEGLNEEAVIFLSSLLTLVGSVTYQVDEDVKSSLSKVFSDVLFEFTKINTPLVGAAFKVISNLVPKLESSRTKFWSFLDSLIFKDSSLNYSSESYRNAFTNVLTKYSDVLGFLQLFHNLISIHSREGHHHHHH", "soluble on expression in E. coli": "not soluble"}
{"sequence": "MLALFYNKKLFEQAGLTKPPETWDELLEYAKIITEKTGKPGLAIYLGGFNRYVPVAVSNGAPKPWFEKPEDASWFDNPVVRETLTWYINLYRKGKVEREKKGLPPYVVAPEDVGAGWLGDAFGQQKVAMVISGNWMIPFLADQFPNFKYGEDWDIAPLPAGKNGRVTMVYTVILGINSKTKHPKEAWKFVEFILGPRGQKELVVKAGQTLPSMKGFENDP", "soluble on expression in E. coli": "not soluble"}
